# Assay results published in the nanobody polyreactivity screen of Harvey et al. (2022).
# Assay: yeast display, Sf9 membrane polyspecificity reagent, FACS + sequencing; frameworks hold sequencing errors
# In short: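 Nanobodies from a synthetic yeast display library (Saccharomyces cerevisiae BJ5465), induced 36–48 hours with galactose, were stained 1 hour at 4 °C with 10% biotinylated, detergent-solubilized Sf9 membrane reagent, enriched on streptavidin microbeads, then FACS-sorted. Anti-HA (expression) and streptavidin (reagent binding) fluorescence set low and high (top ~1%) gates. Polyreactivity labels come from the gate of origin. Genes were colony-PCR amplified, MiSeq 2 × 250 sequenced and filtered by CDR length.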
row,Sequence,polyreactivity (PSR sort gate)
1,QVQLVESGGGLVQAGGSLRLSCAASGSIFGIYAMGWYRQAPGKERELVAAISSSGSTNYADSVKGRFTISRDNAKNTVYLQMNSLKPEDTAVYYCAAEQLSARWAYYYWGQGTQVTVSS,low polyreactivity
2,QVQLVESGGGLVQAGGSLRLSCAASGSIFGIYVMGWYRQAPGKERELVAGISTRGGSTYYADSVKGRFTISRDNAKNTVYLQMNSLKPEDTAGYYCAAVPASYRDPMYYWGQGTQVTVSS,low polyreactivity
3,QVQLVESGGGLVQAGGSLRLSCAASGSIFGKYALGWYRQAPGIERELVAAISGRGGGTYYADSVKGRFTISRDNAKNTVYLQVNRLNPEDTGVYYCNAYYSRLRYDYWGQGTQVTVSS,high polyreactivity
4,QVQLVESGGGLVQAGGSLRLSCAASGSIFGKYTMGWYRQAPGKERELVAGITYRAGSTYYADSVKGRFTISRDNAKNTVYLQMNSLKPEDTAVYYCAARFYFRWYYYGSYANYWGQGTQVTVSS,high polyreactivity
5,QVQLVESGGGLVQAGGSLRLSCAASGSIFGLYAMGWYIQAPGKERELVATISKSGVSTYYADSVKGRFTISRDNEKNTVYLQMKSLKPEVTAVYYCNADISRDNDFDYWGQGTQVTVSA,low polyreactivity
6,QVQLVESGGGLVQAGGSLRLSCAASGSIFGLYAMGWYRQAPGKETELVAAINWNGGDTYYADSVKGRFTISRDNAKNPVYLQMNSLKPEDTAVYYCAAEQYRYGIRRRHYDYWGQGTQVTVSS,low polyreactivity
7,QVQLVESGGGLVQAGGSLRLSCAASGSIFGLYAMGWYRQAPGNERELVAAINQSGGSTSYADSVKGRFTISRDNAKNTVYLQMNSLKPEDTAVYYCAAKRSWGATRRAYGRYDYWGQGTQVTVSS,low polyreactivity
8,QVQLVESGGGLVQAGGSLRLSCAASGSIFGNAMGWYRQAPGKERELVAAITRGVSTYYADSVKGRFTISRDNAKNTVYLQMNSLKPEDTAVYYCNKTYVRGVHGVYLPITSYDYWGQGTQVTVSS,low polyreactivity
9,QVQLVESGGGLVQAGGSLRLSCAASGSIFGNAMGWYRQAPGKEREVVAAISSSGSSTYYADSVKGRFTISRDNAKNTVYFQMNSLKPEDTAVYYCAKRRRSAAPKYDYWGQGTQVTVSS,high polyreactivity
10,QVQLVESGGGLVQAGGSLRLSCAASGSIFGNNAMGWYRQARGKERELVAVITDGGNTYYADSVKGRFTISRDNAKNTVYLQMNSLKPEDTAVYYCNADWWGDSDYWGQGTQVTVSS,low polyreactivity
11,QVQLVESGGGLVQAGGSLRLSCAASGSIFGPYAMGWYRQAPGKERELVAAITKSGGSTYYADSVKGRFTISRDNAKNTVYLQMNSLKPEDTSVYYCAADYGHEYWGQGTQVTVSS,low polyreactivity
12,QVQLVESGGGLVQAGGSLRLSCAASGSIFGPYAMGWYRQAPGKERELVAAITSGGSTYYADSVKGRFTISRDNAKNTVYLQMNSLKPEDTAVYYCNAESYFWDFYDYDHWGQGTQVTLSS,low polyreactivity
13,QVQLVESGGGLVQAGGSLRLSCAASGSIFGPYAMGWYRQAPGKERELVAAITWSGDSTYYADSVKGRFTISRDNAKNTVYLQMNSLKPEDTAVYYCAAETFIWGQGTQVTVSS,low polyreactivity
14,QVQLVESGGGLVQAGGSLRLSCAASGSIFGPYVKGWYSQAPGKEREFVAAIRGSGGSTYYADSVKGRFTISRDNAKKTVYLQMNSLKPEDTAVYYCNARLKYTLYYYWGQGTQVTVSS,high polyreactivity
15,QVQLVESGGGLVQAGGSLRLSCAASGSIFGQNAMGWYRQAPGKEMELVAAIRVSGGSTYYADSVKGRFTNSRDNAKNTVYLQKNSLKPEDTAVYYCNARYRGYYGPKTHGVTYYYWGQGTQVTVSS,low polyreactivity
16,QVQLVESGGGLVQAGGSLRLSCAASGSIFGQNAMGWYRQAPGKERELVAAITTSRGSTYYADSVKGRFTISRDNPKNTVDFQMNSLNPEDTAVYYCAARYVTPGYIIYVYWGQGTQVTVSS,high polyreactivity

row,Sequence,polyreactivity (PSR sort gate)
1,QVQLVESGGGLVQAGGSLRLSCAASGSIFGQYAMGRYRQAPGKERDLVAAIDWSSASTYYADSVKGRVTISRDNAKNTVYLQMNSLKPEDTAVYDCNAVGKYYRYDYWGQGTQVTVSS,high polyreactivity
2,QVQLVESGGGLVQAGGSLRLSCAASGSIFGRNAMGWYRQAPGKERELVADIWNGGSTYYADSVKGRFTISRDNAKNTVYLQMNCLKPEDTAVYYCNADANDDGRFGGYIKYDYWGQGTQVTVSS,low polyreactivity
3,QVQLVESGGGLVQAGGSLRLSCAASGSIFGRNAMGWYRQAPGKERELVAGISWSGGSTYYADSVKGRFTISRDNAKNTVYLQMNSLKPEDTAVYYCAADYWTWSGFTYYNYEYWGQGTQVTVSS,high polyreactivity
4,QVQLVESGGGLVQAGGSLRLSCAASGSIFGRNDMGWYRQAPGKERELVAAISGDTTTNYADSVKGRFTISRDNAKNTVYLQMNSLKPEDTAVYYCNRYSGGRWYPEYYYWGQGTQVTVSS,high polyreactivity
5,QVQLVESGGGLVQAGGSLRLSCAASGSIFGRYAMGWYRQAPGKERELVAAISYSNARTYYADSVKGRFTISRDNAKNTVYLQMNSLKPEDTAVYYCAVLRRYLVGNLVGYNYWGQGTQVTVSS,high polyreactivity
6,QVQLVESGGGLVQAGGSLRLSCAASGSIFGRYAMGWYRQAPGKERELVADISWSGGRTYYADSVKGRFTISRDNAKNTVYLQMNSLKPEDTAVYYCNKVYRWFTRFDYWGQGTQLTVSS,high polyreactivity
7,QVQLVESGGGLVQAGGSLRLSCAASGSIFGRYAMGWYRQAPGKERELVASIYSSGSTYYADSVKGRFTISRDNAKNTVYLQMNSLKPEDTAVYYCAAQISVWGYRVGYTKYYYWGQGTQVTVSS,high polyreactivity
8,QVQLVESGGGLVQAGGSLRLSCAASGSIFGRYGAMGWYRQAPGKERELVAAIRTSGVSTYYADSVKGRFTISRDNAKKNVYLQMNSLKPEDTAVYYCAKGYTSYNLGKYGYWGQGTQVTVSS,high polyreactivity
9,QVQLVESGGGLVQAGGSLRLSCAASGSIFGRYPMGWYRQAPGKERELVAAISRRGGSTYYADSVKGRFTISRDNAKNTVYLQMNSLKPEDTAVYYCAARPFVKHDYWGQGTQVTVSS,high polyreactivity
10,QVQLVESGGGLVQAGGSLRLSCAASGSIFGRYVMGWYRQAPGKERELVAAINWSGSRTYYADSVKGRFTISRDNAKNTVYLQMNSLKPEDTAVYYCAADWWSRYYYWGQGTQVTVSS,high polyreactivity
11,QVQLVESGGGLVQAGGSLRLSCAASGSIFGRYVMGWYRQAPGKERELVAAITSVGITNYADSVKGRFTISRDNAKNTVYLQMNSLKPEDTAVYYCAKRYYRYGARSWYYPYDYWGQGTQVTVSS,high polyreactivity
12,QVQLVESGGGLVQAGGSLRLSCAASGSIFGSNALGWSRQAPGKERELVAAITWSDGSTYYADSVKGRFTISRDNAKNTVYLQMNSLKPEDTAVYVRATDYGYSWYDYWGQGTQVTVSS,low polyreactivity
13,QVQLVESGGGLVQAGGSLRLSCAASGSIFGSNTMGWYRQAPGKEREFVAAISFSGGSTYYADSVKGRFTISRDNAKNTVYLQMNSLKPEDTAVYYCAARQRRVGTSFYSSRRDYWGQGTQVTVSS,high polyreactivity
14,QVQLVESGGGLVQAGGSLRLSCAASGSIFGSYAIGWYRHAPGKERELVAAIRYNSGSTYYADSVKGRFTISRDNAKNTVYLQMNSLKPEDTAVYYCAAYLLWGFDYWVQGTQVTVSS,high polyreactivity
15,QVQLVESGGGLVQAGGSLRLSCAASGSIFGSYALGWYRQAPGKERELVAAISKSGGNTYYADSVKGRFTISRDNAKNTVYLQMNSLKPEDTAVYYCAARYRFLRPKVNYWGQGTQVTVSS,high polyreactivity
16,QVQLVESGGGLVQAGGSLRLSCAASGSIFGSYAMGWYRPAPGKERELVAAITRAGSTNYADSVKGRFTISRDNAKNTVYLQMNSLKPEDTAVYYCAVRPGFGRSLWYGYWGQGTQVTVSS,low polyreactivity
